Data set [1] relates to ZFN 16234 (OCT4 pair 3, L) (synthetic). The data set can be described thus: cell_activity. The settings on record: ZFN pair 3 with 16233, 2.5 ug, BG01 hESC; only 2 clones; 0% at 10 ug (1 clone); labelled pair 2 in Table 3.
Data set [2] has as its system ZFN 16233 (OCT4 pair 3, R) (synthetic). The data set can be described thus: cell_activity. The settings on record: ZFN pair 3 with 16234, 2.5 ug, BG01 hESC; only 2 clones; 0% at 10 ug (1 clone); labelled pair 2 in Table 3.

In data set [1], “CCCAGGAGAGGAGCAGGCAGGGTCAGCT (double strand) [OCT4 target of 16234]” had an activity (% targeting efficiency) of 50. “GCCAGGTCTGGGCAGCTGCAGGTGACCA (double strand) [OCT4 target of 16233]” gave an activity (% targeting efficiency) in data set [2] of 50.

Source of the values: patent publication US20110027235.
